Source: paper PMC11417369, “DNA sequence and chromatin differentiate sequence-specific transcription factor binding in the human malaria parasite Plasmodium falciparum”

How the values were obtained:
AP2-G D1 = target: T1, AP2-G D1 (Plasmodium falciparum, UniProt Q8I5I9 2123-2245); assay: gcPBM; about 25 ug protein; PBS, 1% milk, 0.2 mg/ml BSA, salmon testes DNA, 0.03% Triton X-100; details: tags: N-terminal GST (pGEX-4T-1), kept; label: surface-attached array probe
T1 sequence: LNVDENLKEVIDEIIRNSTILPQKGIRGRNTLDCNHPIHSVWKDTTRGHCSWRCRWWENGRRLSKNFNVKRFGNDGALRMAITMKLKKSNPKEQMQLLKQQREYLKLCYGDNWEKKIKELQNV

AP2-LT D1 = target: T2, AP2-LT D1 (Plasmodium falciparum, UniProt Q8IAM1 2520-2577); assay: as above; details: tags: N-terminal GST (pGEX-4T-1), kept; label: surface-attached array probe
T2 sequence: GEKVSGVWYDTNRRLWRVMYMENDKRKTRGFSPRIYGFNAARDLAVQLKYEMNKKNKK

Binder | binding signal (AP2-G D1) | binding signal (AP2-LT D1)
XGTACX_negctrl_site521 (dsDNA) DNA 1: ATGTTATAAATCTTAATATATATATGCAAAAGAGAA DNA 2: TTCTCTTTTGCATATATATATTAAGATTTATAACAT | 9.88 ln median PBM intensity, better of two orientations | –
CACACA_site5248 (dsDNA) DNA 1: CACAGACACGGACACACACACATATATATATATATA DNA 2: TATATATATATATATGTGTGTGTGTCCGTGTCTGTG | – | 10.9 ln median PBM intensity, better of two orientations
CACACA_site2202 (dsDNA) DNA 1: CGCACCCACAGACACACACACACATATATATATATA DNA 2: TATATATATATATGTGTGTGTGTGTCTGTGGGTGCG | – | 10.8 ln median PBM intensity, better of two orientations
CACACA_site2919 (dsDNA) DNA 1: TACATACAGAAACACACACACACATATATATATATA DNA 2: TATATATATATATGTGTGTGTGTGTTTCTGTATGTA | – | 10.8 ln median PBM intensity, better of two orientations
CACACA_site8012 (dsDNA) DNA 1: ACATCAAGCAGACACACACACACACCCACCCACCCA DNA 2: TGGGTGGGTGGGTGTGTGTGTGTGTCTGCTTGATGT | – | 10.8 ln median PBM intensity, better of two orientations
CACACA_site8067 (dsDNA) DNA 1: AACAAATACAGACACACACACACACTAATAAAAAAA DNA 2: TTTTTTTATTAGTGTGTGTGTGTGTCTGTATTTGTT | – | 10.8 ln median PBM intensity, better of two orientations
CACACA_site5883 (dsDNA) DNA 1: TACATACACGGACACACACACATATATATATATATA DNA 2: TATATATATATATATGTGTGTGTGTCCGTGTATGTA | – | 10.8 ln median PBM intensity, better of two orientations
CACACA_site5249 (dsDNA) DNA 1: CGCACAGACGGACACACACACACATATATATATATA DNA 2: TATATATATATATGTGTGTGTGTGTCCGTCTGTGCG | – | 10.7 ln median PBM intensity, better of two orientations
CACACA_site6426 (dsDNA) DNA 1: GGCATACACGAACACACACACACACGCACATATATA DNA 2: TATATATGTGCGTGTGTGTGTGTGTTCGTGTATGCC | – | 10.7 ln median PBM intensity, better of two orientations
CACACA_site7645 (dsDNA) DNA 1: AAAAAAAATACATACACACACACACGCACATATATA DNA 2: TATATATGTGCGTGTGTGTGTGTATGTATTTTTTTT | – | 10.7 ln median PBM intensity, better of two orientations
CACACA_site8840 (dsDNA) DNA 1: ATAAATAAAGGACACACACACACACTAATAAAAAAA DNA 2: TTTTTTTATTAGTGTGTGTGTGTGTCCTTTATTTAT | – | 10.7 ln median PBM intensity, better of two orientations
CACACA_site3541 (dsDNA) DNA 1: GGAATAACCAGACACACACACACATATATATATATA DNA 2: TATATATATATATGTGTGTGTGTGTCTGGTTATTCC | – | 10.7 ln median PBM intensity, better of two orientations
CACACA_site6446 (dsDNA) DNA 1: TACACGCATAGACACACACACACACGCATATAAATA DNA 2: TATTTATATGCGTGTGTGTGTGTGTCTATGCGTGTA | – | 10.7 ln median PBM intensity, better of two orientations
CACACA_site5894 (dsDNA) DNA 1: AAAAGGAACGGACACACACACATATATATATATATA DNA 2: TATATATATATATATGTGTGTGTGTCCGTTCCTTTT | – | 10.7 ln median PBM intensity, better of two orientations
CACACA_site3394 (dsDNA) DNA 1: AACAGACAGAAACACACACACATATATATATATATA DNA 2: TATATATATATATATGTGTGTGTGTTTCTGTCTGTT | – | 10.7 ln median PBM intensity, better of two orientations
CACACA_site5252 (dsDNA) DNA 1: AACACGCGCGGACACACACACACACCCACATATATA DNA 2: TATATATGTGGGTGTGTGTGTGTGTCCGCGCGTGTT | – | 10.7 ln median PBM intensity, better of two orientations
CACACA_site5884 (dsDNA) DNA 1: AATACATACGGACACACACACACATATATATATATA DNA 2: TATATATATATATGTGTGTGTGTGTCCGTATGTATT | – | 10.7 ln median PBM intensity, better of two orientations
CACACA_site4488 (dsDNA) DNA 1: TACAAATATGGACACACACACATATATATATATATA DNA 2: TATATATATATATATGTGTGTGTGTCCATATTTGTA | – | 10.7 ln median PBM intensity, better of two orientations
